Target: 5-TAMRA-labeled human CaV1.2-IQ peptide (human)
Sequence (Q13936 1659-1692): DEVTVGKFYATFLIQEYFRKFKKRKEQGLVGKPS

Substance: calmodulin, wild type (from UniProt P0DP23 1-149) (natural protein)
- f300 (calcium-dependent inactivation of the CaV1.2 channel; whole-cell voltage clamp of HEK293 cells co-transfected with human CaV1.2 α1C, β2a, α2δ and calmodulin): 0.57
